Source: patent US20180237496A1 (DENALI THERAPEUTICS, published 2018)
Substitutions are numbered along the chain they refer to.

T1: cynomolgus (cyno) transferrin receptor (TfR) ectodomain (ECD) (cynomolgus (cyno), biotinylated where captured on streptavidin ; biotinylated (sulfo-NHS-LC-biotin on amines or BirA on the Avi-tag) where captured on streptavidin)
T1 construct: made in HEK293; also called cyno TfR; cynoTfR; not shown: C-terminal cleavable His- and Avi-tags with their cleavage site
T1 chain: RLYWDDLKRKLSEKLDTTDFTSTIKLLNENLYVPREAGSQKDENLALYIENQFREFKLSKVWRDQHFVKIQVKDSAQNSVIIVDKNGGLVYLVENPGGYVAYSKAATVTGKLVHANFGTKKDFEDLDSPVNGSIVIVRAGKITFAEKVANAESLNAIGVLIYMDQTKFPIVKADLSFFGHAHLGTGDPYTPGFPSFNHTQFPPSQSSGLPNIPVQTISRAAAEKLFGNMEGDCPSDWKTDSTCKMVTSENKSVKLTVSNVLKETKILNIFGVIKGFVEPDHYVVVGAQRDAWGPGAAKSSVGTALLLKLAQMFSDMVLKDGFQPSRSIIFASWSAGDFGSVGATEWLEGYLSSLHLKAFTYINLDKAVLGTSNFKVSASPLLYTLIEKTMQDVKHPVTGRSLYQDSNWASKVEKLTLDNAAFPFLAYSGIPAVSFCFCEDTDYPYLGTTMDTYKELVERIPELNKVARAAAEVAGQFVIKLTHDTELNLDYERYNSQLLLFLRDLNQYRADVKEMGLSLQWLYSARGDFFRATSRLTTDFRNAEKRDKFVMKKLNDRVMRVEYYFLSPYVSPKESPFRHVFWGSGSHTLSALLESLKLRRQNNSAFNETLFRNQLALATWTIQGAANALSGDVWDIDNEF

T2: His-tagged permuted human TfR apical domain (TfR-AD) (human)
T2 construct: C-terminal His6; used for co-crystals (Expi293 or CHO); also called permuted TfR apical domain
T2 chain: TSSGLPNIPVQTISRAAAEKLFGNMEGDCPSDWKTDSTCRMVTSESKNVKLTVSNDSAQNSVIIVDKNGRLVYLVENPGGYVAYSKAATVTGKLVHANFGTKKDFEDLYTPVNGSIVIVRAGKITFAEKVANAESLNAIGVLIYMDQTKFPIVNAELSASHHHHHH

B1: Clone CH2C.6 (designed binder)
chain: PCPAPELLGGPSVFLFPPKPKDTLMISRTPEVTCVVVDPKMPPWEVKFNWYVDGVEVHNAKTKPREEEYYTYYRVVSVLTVLHQDWLNGKEYKCKVSNKALPAPIEKTISKAKGQPREPQVYTLPPSRDELTKNQVSLTCLVKGFYPSDIAVEWESNGQPENNYKTTPPVLDSDGSFFLYSKLTVDKSRWQQGNVFSCSVMHEALHNHYTQKSLSLSPGK
notes: modified human IgG1 Fc, phage display
B2: Clone CH2A2.4 (designed binder)
chain: PCPAPELLGGPSVFLFPPKPKDTLMISRTPEVTCVVVDVSHEDPEVSFEWYVDGVPVRWEWQWPREEQYNSTYRVVSVLTVLHQDWLNGKEYKCKVSNKALPAPIEKTISKAKGQPREPQVYTLPPSRDELTKNQVSLTCLVKGFYPSDIAVEWESNGQPENNYKTTPPVLDSDGSFFLYSKLTVDKSRWQQGNVFSCSVMHEALHNHYTQKSLSLSPGK
notes: as for B1
B3: Clone CH2A2.5 (designed binder)
chain: B2 chain with S47A, E49T, W63N
notes: as for B1
B4: Clone CH2A2.16 (designed binder)
chain: B2 chain with S47W, P56F, R58G, W59V, E60A, W61Y, Q62D, W63V
notes: as for B1
B5: Clone CH2A2.1 (designed binder)
chain: B2 chain with S47E, E49I, P56D, W59Y, W63L
notes: as for B1
B6: CH3C.18 Fc (expressed engineered human Fc) (designed binder)
chain: DKTHTCPPCPAPEAAGGPSVFLFPPKPKDTLYITREPEVTCVVVDVSHEDPEVKFNWYVDGVEVHNAKTKPREEQYNSTYRVVSVLTVLHQDWLNGKEYKCKVSNKALGAPIEKTISKAKGQPREPQVYTLPPSRDELTKNQVSLTCLVKGFYPSDIAVEWESLGHVWAVYKTTPPVLDSDGSFFLYSKLTVPKSTWQQGWVFSCSVMHEALHNHYTQKSLSLSPGK
notes: also called CH3C.18 Fc polypeptide
B7: CH3C.35 Fc (expressed engineered human Fc) (designed binder)
chain: B6 chain with L164Y, H166T, V167E, A169S, V170S, P193T, T196E, W201F

Experiments:
[1] = target: T3, human transferrin receptor (TfR) ectodomain (ECD) (human, biotinylated where captured on streptavidin ; Biotinylated (NHS-biotin on amines, or BirA on the Avi-tag) where captured on streptavidin. It forms a homodimer, and the unique chain is given once.); experiment: ELISA, clone as Fc-Fab fusion, human TfR coated
T3 construct: made in HEK293; also called human TfR; huTfR; not shown: The C-terminal cleavable His- and Avi-tags

[2] = target: T1, cynomolgus (cyno) transferrin receptor …; experiment: phage ELISA, clone on phage, target coated on plate
Description: (§1) FIGS. 1A-1D show phage ELISA results for four CH2A2 clones.
(§2) ELISA plates were coated with target, typically at […] overnight, then blocked with 1% BSA before addition of phage or periplasmic extracts. […] The plates were washed again, and then developed with TMB reagent and quenched with 2N sulfuric acid. […] Absorbance signal for tested clones was compared to negative control (phage or paraplasmic extract lacking Fc).

[3] = target: T3, human transferrin receptor (TfR) …; experiment: as above
Description: as §1, §2
Target sequence in this assay (chain, as listed by the source limits assumed, form in doubt): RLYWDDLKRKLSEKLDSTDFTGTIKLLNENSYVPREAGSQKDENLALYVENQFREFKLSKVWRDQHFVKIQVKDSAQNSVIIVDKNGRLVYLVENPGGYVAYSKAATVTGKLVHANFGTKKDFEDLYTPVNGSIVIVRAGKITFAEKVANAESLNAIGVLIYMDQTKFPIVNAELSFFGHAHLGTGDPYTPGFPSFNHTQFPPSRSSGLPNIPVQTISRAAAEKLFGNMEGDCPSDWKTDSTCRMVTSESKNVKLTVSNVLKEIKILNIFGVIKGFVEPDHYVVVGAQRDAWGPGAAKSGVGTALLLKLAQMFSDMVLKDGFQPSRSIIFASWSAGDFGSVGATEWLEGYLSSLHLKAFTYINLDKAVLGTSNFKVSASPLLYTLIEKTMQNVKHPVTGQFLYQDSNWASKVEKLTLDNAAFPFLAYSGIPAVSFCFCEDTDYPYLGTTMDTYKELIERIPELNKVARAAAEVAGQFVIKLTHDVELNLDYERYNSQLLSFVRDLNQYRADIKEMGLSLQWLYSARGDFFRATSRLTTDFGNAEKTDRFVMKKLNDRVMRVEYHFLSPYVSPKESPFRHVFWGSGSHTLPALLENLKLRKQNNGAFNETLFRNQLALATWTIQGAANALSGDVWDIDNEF

[4] = target: T2, His-tagged permuted human TfR apical …; experiment: size-exclusion chromatography of the mixed proteins

Row | Binder | EC50 (read off the curve) [1] [nM] | EC50 (read off the curve) [2] | EC50 (read off the curve) [3] | binding result [4]
1 | B1 | ~2 |  |  | 
2 | B2 |  | ~0.02 OD268 (phage solution) | ~0.02 OD268 (phage solution) | 
3 | B3 |  | ~0.01 OD268 (phage solution) | ~0.008 OD268 (phage solution) | 
4 | B4 |  |  | ~0.04 OD268 (phage solution) | 
5 | B5 |  | ~0.04 OD268 (phage solution) | ~0.03 OD268 (phage solution) | 
6 | B6 |  |  |  | binds
7 | B7 |  |  |  | binds
